Assay results taken from the DeepSol protein solubility set.

Assay: soluble on expression in E. coli; label from the status in PepcDB or PDB records

| Sequence | soluble on expression in E. coli |
| --- | --- |
| MNYAEICIIKRDGKREDFSISKIKNAIGKAFHASGIDNEDKLIAEITMRVISNFVSPTISVEEIQDLVEKELMKVRPEVAKKYIIYREWRNTERDRKTQMKHIMDGIVAIDKNDVNLSNANMSSHTPAGQMMTFASEVTKDYTYKYLLPKKYAEAHQLGDIHIHDLDYYPTKTTTCIQYDLDDLFERGFRTKNGSIRTPQSIQSYATLATIIFQTNQNEQHGGQAIPAFDFFMAEGVRKTFRKHLKTLTEFYIEVEGKEPGTEALKKIEEKAYAMTRKDTHQAMEGFIHNLNTMHSRGGNQVVFSSINYGTDTSPEGRMVIEELLKATIEGLGTRGEVPVFPIQIFKVKDGVSYSEEDYKKAMENFEAALEGKMEFQAPNFDLFLKACRTTAKALFPNFMFLDTPYNKNEKWDIKDPKRYRYELATMGCRTRVYENIAGEKSSLGRGNLSFTTMNMPRLAIEARIKAESLEESGKKEAIERKAKEIFIESVHALSELIAEQLYARYQYQRTALARQFPFMMGNDVWKGGGKLSPNDQVGDVLRQGTLGIGFIGGHNAMMALYGEGHAHSQKAWDTLFEAVTEMNKVADEYKQKYQLNFSVLATPAEGLSGRFTRMDRRKYGIIPGVTDNDYYVNSFHVDVKEPITITEKIKREAPFHAITRGGHITYVELDGEAQKNVKAIAKIVKVMHDEGIGYGSINHPVDTCQACGYKGVIYDKCPVCQSENIMRMRRITGYLTGDLSTWNSAKRAEERDRVKHG | not soluble |
| MNYEIKQEEKRTVAGFHLVGPWEQTVKKGFEQLMMWVDSKNIVPKEWVAVYYDNPDETPAEKLRCDTVVTVPGYFTLPENSEGVILTEITGGQYAVAVARVVGDDFAKPWYQFFNSLLQDSAYEMLPKPCFEVYLNNGAEDGYWDIEMYVAVQPKHH | soluble |
| MNYFGKLQIRFSKSFLLLLIVSSLTACVDLTGARNTYIKKEKQPAISDVPNKKSKAQNMSSKKGEVHTMLGGLGIFSKGMYTLRDKVSEKYHITAHSTMWYNAGAVSRYIIDHYYQEKDHKPIILVGHSLGANEQIKVARNLNAAGVPVALLVTVDAVSQTIVPPNVKQALNVYKPGFVPMFSGLKLRAVDPQLTKIDNINVDSIKGIKVNHFTIDKDEILQAMIMDKVDKVLVDGNKKGA | not soluble |
| MNYHTATITCQTTRPIDIIDITADVRSALEESGLQQGTVTLLSRHTTACLNINEREERLMQDMTTWLKRFIPKDGDWLHNIETIDGRDNAHSHLLGLFMNSSETIPFSEGQLMLGKWQSIFFIELDGPRPKREVLVHIQGELEHHHHHH | soluble |
| MNYHWSDHPDPNKWADCVHCGMCLEACPTYELTGHEQQSPRGRVHLIKSVAEGKLEVNEAFADPVFTCLDCRACETACPADVEVGGLIEEARGQIRQALPLSGWKLEHHHHHH | not soluble |
| MNYSHPISLKTLVQEDDIGVNAPIIHQSVIARLTAGLYPLYQSKKIPFEPLPETMLTEGYSSPVPDVLLYDHQTEEAKVIIEVCQNSGLKHDTSKIVKLIEDNAYGILEGFVFNYKTQQWLRYRLGDGGVATNSSFSEVLQVDLNTFV | soluble |
| MNYTLKNDHLNVVVDTFGAEMHSIQHDDIEYLWQADAKFWGRHAPVLFPIVGKLKNGEYRYNDKTYKMGGHGFARDNDFELIKKSADELVFELRDNEDSLNHYPFHFVFRVSYKLVDNKIRVRYEVKNEDEKFMSFGVGAHPAFNVPLKNGTFEDYQLTISPDEKRTFIPLDPPSGTLKLDERVESQVSQLPLTRALFDKDALVYTSSKEMKVSLTNKLDDHGVSLTWKNMPYFGLEHHHHHH | not soluble |
| MPAHPAKTDLASSAGARGGALAMESAEHSASPAIATTARLLAAMKDQPGALLPVLHAVQDELGFIPPEAVQTIAETLSLSRAEVHGVITFYPHFRSEPAGRHVLEICRAESCQAMGGDALAAHARQRLGCEFHATAADGSCTLEPVYCLGLCAQSPAVMIDGQPHARVTPAKLDRLLARAIEATP | not soluble |
| MPAIFTHEGKVEGVPGNYPLTAENLFRIGLALCTLWILDKEIEEPTLSIPETNFVTLALSVGFMNAGGSVNVGKGGDIKLFLQKGEIYVLEFQPLSETDIKKLESILFGRAPIPKKTGEDIGSFKC | soluble |
| MPAQPNPEQRDWLEALNAGDATMGESRLFERDGTWYLHVTATRDVEERSDVSAEERTPIGVDIGEASLATVCHRDGHGSPTAPELWADEGKTVRRLRKTYFTATRRLQTRGSERIVESFGDDIWDQIDDVFHRVTREVVEYAESVENPVLVLEDLTYIRESMDYGEYMNRRLHGWGFAKLHAQIRYKAVEKGIPVETVNPCNTSKECHACGEVGYRPRQATFKCTNDACWMGESQADVNGAINIADRYLSGESHSREHTDGDDSAGDGGRLTAPQDTLADATTQETLGTYAS | soluble |
| MPAYPREGKIIQIHSYKHNGTIHRIWQETVVLKGTPSYVIGGNNKTLVMEADGRTWVTREPAICFFHAKHWFNIIAMIREDGVYYYCNLSSPFVWDEEALKYIDYDLDIKVFPDMTYMLLDEDEYERHRREMHYPDVIDRILKNNVQKLIGWIKERKGPFAPEFIDKWYGVFQAYQT | not soluble |
| MPDIVNRKVEHVEIAAFENVDGLSSSTFLNDVILVHQGFPGISFSEINTKTKFFRKEISVPVMVTGMTGGRNELGRINKIIAEVAEKFGIPMGVGSQRVAIEKAEARESFAIVRKVAPTIPIIANLGMPQLVKGYGLKEFQDAIQMIEADAIAVHLNPAQEVFQPEGEPEYQIYALEKLRDISKELSVPIIVKESGNGISMETAKLLYSYGIKNFDTSGQGGTNWIAIEMIRDIRRGNWKAESAKNFLDWGVPTAASIMEVRYSVPDSFLVGSGGIRSGLDAAKAIALGADIAGMALPVLKSAIEGKESLEQFFRKIIFELKAAMMLTGSKDVDALKKTSIVILGKLKEWAEYRGINLSIYEKVRKRE | soluble |
| MPDPLTVSGSFSPEDVKHIGLKSIISGQIIKKYSQNQNLRSIKNVKLIIPSKAVSVDRNERTLFIPCLKLLLNYRFSNNFNKVSQIEIDNVYAYVAVVFPDEEPESFGYYIGVDRNTMGHIAVVADPDSGKVWKLGKMRYHIHQKYQNIMNRLSNSGKNKQLKAVKKREKNIVKDLNHKISRKIVDLALYNGSGIKLENLKGIRKLNSKSNGAGKGKPDQNKDKKLTCSNEYSLNNWSFLQLQQFIEYKARLRGVEVVYIDPYATSKKCSRCGHTGNRQSKRFECPCCGHVDHADVNAAFNIALTPKDTGQFSAERDAGKGRTDTPQKVLARNAFSKRAAREKASPQFAWEVCQFLTLEHHHHHH | not soluble |
| MPDSPAEVKTQPRSTPPSMPPPPPTSSQGATRPPSFTPHTLMNGSSHSPTAIHGAPSTPNGFSNGPATSSTASLSTQHLPPACGARQLSKLKRFLTTLQQFGSDISPEIGERVRTLVLGLVNSTLTIEEFHAKLQEATNFPLRPFVIPFLKANLPLLQRELLHCARLAKQTPAQYLAQHEQLLLDASATSPVDSSELLLEVNENGKRRTPDRTKENGSDRDPLHPDHLSKRSCTLSPAQRCSPSNGLPHPTPPPPPHYRLEDMAMAHHFRDSYRHPDPRELRERHRPLAIPGLDKKK | soluble |
| MPEALRTQIDELNSWIYDKVNNGVYKAGFATTQSAYDESASTVFAALSDLETILAKQRYLTGEQLTEADLRLWTTLIRFDPVYHTHFKCDKYRLSDYPNLFGFLRDIYQMPGIAETVDMAHIRHHYYRSHGTINPHGVISLGPEQDLNQPHQRDKKFVDLYLEHHHHHH | soluble |
| MPEMADVMQTQAGDAGAFRHFDLSRVPTPCFVVDEVAIERNLKILRDISDRSGAHVLSALKAFSMFTLAPLVRQYLGGTCASGIYEARLGREEYGGEVATFCAGYKEQDIDEILSLSNHIIFNSPAQKDRFLSRAQAAGVQVGLRINPEHSEGEIAKYDPCAPCSRLGTPVSLLTPETLKGVDGLHMHTLCEQGFEPLLRTWAAVEPKLAPYLPGLKWLNFGGGHHITRADYDRDALIDFLKSLRARHGLDVYLEPGEAVALDAGILVGEILDLPSNGMDLAITDISATCHMPDVIEAPYRPALMDEADSGHTYRLGGPSCLAGDVIGDYTWDQPLTIGQRFAFLDQAHYSMVKTNTFNGVPLPTIALWNSKTDALRIVRQFDYSDFKDRLS | not soluble |
